Patent publication US20190127480A1 (Regeneron, published 2019)
One block for each binder: values may come before it.

Columns and labels:
[1] = molecular target: T1, cynomolgus monkey CD3 expressed on monkey T-cells (PBMCs) (cynomolgus monkey, UniProt Q95LI5 22-198; Q95LI8 22-171); assay: FACS titration on monkey PBMCs, gated on CD2+CD4+ T cells
T1 construct: whole, on cells; Native CD3 on monkey T cells; gamma and zeta chains are also part of CD3 on cells; also called monkey PBMCs; mfPBMC
Procedure: FACS data was acquired using the following protocol: Cells at 2×10⁵ per well were incubated with serially diluted antibodies for 30 min on ice. Post incubation, cells were washed and secondary antibodies were added and incubated for an additional 30 minutes. After incubation, cells were washed, re-suspended in cold PBS containing 1% BSA and analyzed by flow cytometry. CD4+ monkey T cells were gated by side and forward scatters, and on the CD2+CD4+CD20− population. The EC₅₀s for cell binding titration were calculated using a 4-parameter non-linear regression analysis in GraphPad Prism.

[2] = molecular target: T1, cynomolgus monkey CD3 expressed on …; assay: cell-based or functional assay
[3] = molecular target: human CD3 expressed on cells (Jurkat cells; human T-cells of PBMC) (human, UniProt P09693 23-182; P20963 22-164); assay: cell-based or functional assay
Sequence of human CD3 expressed on cells (Jurkat cells; human T-cells of PBMC) (chain, as listed by the source, chain 1 of 4): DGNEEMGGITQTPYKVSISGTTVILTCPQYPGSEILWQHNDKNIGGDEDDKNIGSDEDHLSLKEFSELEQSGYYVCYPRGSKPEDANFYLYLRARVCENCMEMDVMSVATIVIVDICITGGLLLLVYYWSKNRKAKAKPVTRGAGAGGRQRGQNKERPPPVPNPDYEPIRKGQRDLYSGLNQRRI
Sequence of human CD3 expressed on cells (Jurkat cells; human T-cells of PBMC) (chain, as listed by the source, chain 2 of 4): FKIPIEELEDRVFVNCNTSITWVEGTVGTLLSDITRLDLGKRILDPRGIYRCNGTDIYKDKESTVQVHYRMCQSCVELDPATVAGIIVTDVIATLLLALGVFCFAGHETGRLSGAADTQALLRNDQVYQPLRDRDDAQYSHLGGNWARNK
Sequence of human CD3 expressed on cells (Jurkat cells; human T-cells of PBMC) (P09693 23-182, chain 3 of 4): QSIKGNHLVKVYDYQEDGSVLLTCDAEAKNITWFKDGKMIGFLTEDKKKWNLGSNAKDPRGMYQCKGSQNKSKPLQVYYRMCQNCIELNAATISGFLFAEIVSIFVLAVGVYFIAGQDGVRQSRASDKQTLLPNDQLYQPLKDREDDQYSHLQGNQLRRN
Sequence of human CD3 expressed on cells (Jurkat cells; human T-cells of PBMC) (P20963 22-164, chain 4 of 4): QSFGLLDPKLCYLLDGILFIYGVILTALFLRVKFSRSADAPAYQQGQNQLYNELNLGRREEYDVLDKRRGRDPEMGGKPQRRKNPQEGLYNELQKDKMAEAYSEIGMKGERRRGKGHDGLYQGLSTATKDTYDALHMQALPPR

[4] = molecular target: T2, human CD3 on CD3-expressing cells (Jurkat, human T cells) (human, UniProt P07766 23-207; P04234 22-171); assay: FACS titration of Jurkat cells
T2 construct: On cells CD3 stands within the T cell receptor complex (also gamma and zeta chains); also called human CD3 expressing Jurkat cells
T2 sequence (P07766 23-207 limits assumed, chain 1 of 2): as the sequence (chain, as listed by the source, chain 1 of 4) above
T2 sequence (P04234 22-171 limits assumed, chain 2 of 2): as the sequence (chain, as listed by the source, chain 2 of 4) above

[5] = molecular target: T3, cynomolgus CD3 on cynomolgus T cells (cynomolgus, UniProt Q95LI5 22-198; Q95LI8 22-171); assay: FACS titration of cynomolgus T cells
T3 construct: whole, on cells; also called Cyno T-cells; monkey T-cells
T3 sequence (Q95LI5 22-198, form in doubt, chain 1 of 2): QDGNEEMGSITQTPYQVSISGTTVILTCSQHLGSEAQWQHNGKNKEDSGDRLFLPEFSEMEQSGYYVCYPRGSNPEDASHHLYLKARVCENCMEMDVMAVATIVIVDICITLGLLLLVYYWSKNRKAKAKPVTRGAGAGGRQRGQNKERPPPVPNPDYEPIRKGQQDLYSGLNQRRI
T3 sequence (Q95LI8 22-171, form in doubt, chain 2 of 2): as the sequence (chain, as listed by the source, chain 2 of 4) above, with I5V, N15K, I20V, S32T, D33N, I34N, T64A, S74N, V83L, H141R counted along it

[6] = molecular target: T4, human PSMA expressed with an N-terminal hexahistidine tag (6h.hPSMA, R&D) (human, UniProt Q04609 44-750); assay: SPR Biacore T-200, 37 C, antibody-capture (anti-mouse Fc), 6h.hPSMA as analyte
T4 construct: Bought soluble protein; also called soluble human PSMA; human PSMA protein
T4 sequence (Q04609 other isoform, or with tags, fused parts or gaps limits assumed): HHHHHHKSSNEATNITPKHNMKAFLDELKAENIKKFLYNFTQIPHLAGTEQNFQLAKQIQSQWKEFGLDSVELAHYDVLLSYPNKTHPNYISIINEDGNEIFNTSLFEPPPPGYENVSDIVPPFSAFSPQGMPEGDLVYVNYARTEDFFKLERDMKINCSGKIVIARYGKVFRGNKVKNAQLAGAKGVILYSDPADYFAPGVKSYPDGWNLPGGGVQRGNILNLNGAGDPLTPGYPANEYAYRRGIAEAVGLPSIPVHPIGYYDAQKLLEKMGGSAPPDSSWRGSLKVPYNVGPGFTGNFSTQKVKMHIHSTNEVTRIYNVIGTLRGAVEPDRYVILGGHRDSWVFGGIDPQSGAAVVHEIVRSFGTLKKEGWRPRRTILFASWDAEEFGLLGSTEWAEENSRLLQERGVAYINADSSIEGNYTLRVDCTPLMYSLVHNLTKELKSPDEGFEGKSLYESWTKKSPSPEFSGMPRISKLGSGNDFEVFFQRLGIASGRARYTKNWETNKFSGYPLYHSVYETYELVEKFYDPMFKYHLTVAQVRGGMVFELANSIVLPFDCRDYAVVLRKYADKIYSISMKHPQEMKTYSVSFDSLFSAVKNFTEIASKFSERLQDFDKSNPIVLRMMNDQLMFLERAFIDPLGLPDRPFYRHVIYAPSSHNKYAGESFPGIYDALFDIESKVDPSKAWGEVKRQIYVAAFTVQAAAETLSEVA
Procedure: Briefly, a CM5 Biacore™ sensor surface was derivatized via amine coupling with a monoclonal mouse anti-human Fc antibody (GE, # BR-1008-39) or monoclonal goat anti-mouse Fc antibody (GE, # BR-1008-38) to capture purified anti-PSMA antibodies. Binding studies were performed in HBSP++ buffer composed of 0.01M HEPES, 0.15M NaCl, 2 mM Ca²⁺, 2 mM Mg²⁺, 0.05% v/v Surfactant P20, pH7.4. Varying concentrations of human PSMA expressed with an N-terminal hexahistidine tag (6h.hPSMA, R&D) prepared in HBSP++ running buffer (ranging from 50 to 0.78 nM, 4-fold dilutions) were injected over the anti-PSMA antibody captured surface at a flow rate of 30 μL/minute. Antibody-reagent association was monitored for 2 minutes while dissociation in HBSP++ running buffer was monitored for 8 minutes.
Kinetic association (kₐ) and dissociation (kd) rate constants were determined by fitting the real-time sensorgrams to a 1:1 binding model using Scrubber 2.0c curve fitting software. Binding dissociation equilibrium constants (KD) and dissociative half-lives (t½) were calculated from the kinetic rate constants as: KD (M)=kd/kₐ; and t_{1/2} (min)=(ln 2/(60*kd).

[7] = molecular target: T2, human CD3 on CD3-expressing cells …; assay: FACS on Jurkat cells
Procedure: (§1) Briefly, 2×10⁵ cells/well of human CD3-expressing Jurkat, cynomolgus T, or human PSMA-specific expressing cells were incubated with a serial dilution of bispecific antibodies for 30 min at 4° C. After incubation, cells were washed and a goat F(ab′)₂ anti-human Fcγ PE labeled secondary (Jackson Immunolabs) was added to the cells for an additional 30 min. Next, cells were washed, re-suspended in cold PBS+1% BSA and analyzed via flow cytometry on a BD FACS Canto II.
(§2) For FACS analysis, cells were gated by forward scatter height vs. forward scatter area for single events selection, followed by side and forward scatters. The EC₅₀ for cell binding titration was determined using Prism software. Values were calculated using 4-parameter non-linear regression analysis.

[8] = molecular target: T5, human PSMA on PSMA-expressing cells (human, UniProt Q04609 1-750); assay: FACS on 22RV1 cells
T5 construct: Cell line is named under assay or readout in each row; also called B16F10.9/hPSMA; B16F10.9/PSMA
T5 sequence (Q04609 whole entry): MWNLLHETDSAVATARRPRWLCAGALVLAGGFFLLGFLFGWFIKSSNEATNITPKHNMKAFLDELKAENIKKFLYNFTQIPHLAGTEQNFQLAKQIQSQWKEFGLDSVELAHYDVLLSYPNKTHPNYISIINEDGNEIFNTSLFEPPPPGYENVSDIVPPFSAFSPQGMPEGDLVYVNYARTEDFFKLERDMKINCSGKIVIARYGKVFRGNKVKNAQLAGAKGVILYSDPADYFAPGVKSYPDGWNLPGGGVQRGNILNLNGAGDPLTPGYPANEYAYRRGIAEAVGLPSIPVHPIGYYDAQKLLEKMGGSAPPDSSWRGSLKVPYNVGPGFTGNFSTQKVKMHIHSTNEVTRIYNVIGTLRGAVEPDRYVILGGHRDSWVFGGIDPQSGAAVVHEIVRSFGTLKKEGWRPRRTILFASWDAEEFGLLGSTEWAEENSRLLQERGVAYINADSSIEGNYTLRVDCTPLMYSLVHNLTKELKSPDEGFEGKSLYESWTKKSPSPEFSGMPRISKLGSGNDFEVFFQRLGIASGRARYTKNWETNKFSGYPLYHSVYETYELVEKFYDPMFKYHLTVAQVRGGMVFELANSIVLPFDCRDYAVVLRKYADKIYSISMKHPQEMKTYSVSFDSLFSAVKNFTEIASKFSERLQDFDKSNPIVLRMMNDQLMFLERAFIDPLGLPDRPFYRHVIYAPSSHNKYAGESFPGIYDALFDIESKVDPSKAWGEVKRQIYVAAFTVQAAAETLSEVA
Procedure: as §1, §2

T1 sequence (Q95LI5 22-198, chain 1 of 2): as the sequence (Q95LI5 22-198, form in doubt, chain 1 of 2) above
T1 sequence (Q95LI8 22-171, chain 2 of 2): as the sequence (chain, as listed by the source, chain 2 of 4) above, with I5V, N15K, I20V, S32T, D33N, I34N, T64A, S74N, V83L, H141R counted along it

B1: H1H2712N (antibody, human IgG1, V domains shown)
VH: EVQLVESGGGLVQPGGSLRLSCAATGFTFDDFTMHWVRQAPGKGLEWVSGISWNSGSIGYVDSVKGRFTISRDNAKNSLYLQMNSLRAEDTALYYCAKDNSGYGYYYYGMDVWGQGTTVTVSS
VL: EIVMTQSPATLSVSPGERATLSCRASHSVSRNSAWYQQKPGQAPRLLIYGASTRATGIPARFSGSGSGTEFTLTISSLQSEDFAIYYCQQYNNWPLTFGGGTKVEIK
notes: H1H: human IgG1 Fc
- EC50 [1]: 2.29 nM
- EC50 [M] mfPBMC Proliferation [2]: 2.72e-12 M

B2: H2M3547N (antibody, mouse IgG2, V domains shown)
VH: EAQLVESGGGLVQPGRSLRLSCTTSGFTFDDYTMHWVRQAPGKGLEWISDISWNGGTKGYADSVKGRFTISRDNAKNSLYLQMDSLRGEDTALYYCVKDKSGYGHFYFGLDVWGQGTTVTVSS
VL: DIQMTQSPSSLTASVGDRVTFTCRASQSISRHLSWYQQKPGKAPKLLIYAASSLESGVPSRFSGSGSGTDFTLTISSLHPEDFATYYCQQSYSNPPITFGQGTRLEIK
notes: H2M: human variable regions, mouse IgG2 Fc
- U937 Cytotoxicity Human T-cells [3]: 31.7 pM
- EC50 [1]: 0.112 nM

B3: H2M3563N (antibody, mouse IgG2, V domains shown)
VH: EVHLVESGGGLVQPGRSLRLSCAASGFTFDDYTMHWVRQAPGKGLEWVSDISWNSGSIGYADSVKGRFTVSRDNAKNSLYLQMNSLRGEDTALYYCAKDMSGYGHYGKYGMDVWGQGTTVTVSS
VL: DIQMTQSPSSLSASVGDRVTITCRASQSIRSYLNWYQQKPGKVPKLLIYAASSLQSGVPSRFSGSGSGTDFTLTINSLQPDDFATYYCQQTYSNPPITFGQGTRLEIK
notes: as for B2
- U937 Cytotoxicity Human T-cells [3]: 40.5 pM
- EC50 [1]: 0.165 nM

B5: H1M11900N (antibody, mouse IgG1, V domains shown)
VH: EVQLVESGGALVQTGGSLRLSCVASGFTFSNYWMSWVRQSPGKGLQWVASIKKDGSDEDYVDSVKGRFTISRDNAENSLYLQMTSLRIEDTAVYYCARFISAVGVDWGQGALVTVSS
VL: DIQMTQSPSSLSASVGDSVTITCRASQSINNYLNWYQQKPGKAPKLLIYTASSLLSGVPSRFSGSGSGTDFTLTISGLHPEDFATYFCQQSFSTPPITFGQGTRLDIK
notes: human variable / mouse constant region (H1M: mouse IgG1 Fc)
- Kd [6]: 25.8 nM
- koff [6]: 0.00406 s⁻¹
- kon [6]: 157000 M⁻¹ s⁻¹
- t1/2 [6]: 2.8 min

Next, values leading:

- EC50 [4]: 1 to 40 nM
- EC50 [5]: 1 to 40 nM
B4: CD3-VH-P (antibody, V domains shown)
VH: EVQLVESGGGLVQPGRSLRLSCVASGFTFDDYSMHWVRQAPGKGLEWVSGISWNSGSKDYADSVKGRFTISRDNAKNSLYLQMNSLRAEDTALYYCAKYGSGYGKFYHYGLDVWGQGTTVTVSS
VL: B5 VL
notes: also called CD3 antibody designated CD3-VH-P

- EC50 [7]: 39.1 nM
- EC50 [8]: 78.5 nM
B6: BSPSMA/CD3-001 (bispecific antibody, IgG4, V domains shown)
VH 1: QVQLVESGGGVVQPGRSLRLSCAASGFTFITYGMHWVRQAPGKGLEWVAIIYYDESNKYYADSVKGRFTISRDISKNTLYLQMNGLRAEDTAVYYCARAPRVAVEEDYSYYYGMDVWGQGTTVTVSS
VH 2: EVQLVESGGGLVQPGRSLRLSCVASGFTFADFTMHWVRQAPGKGLEWVSGISWNSNSIDYADSVKGRFTISRDNAKKSLFLQMSSLRAEDTALYYCVKDRSGYSRFYYGMDVWGQGTTVTVSS
VL: EIVMTQSPATLSVSPGERAILSCRASQNINSNLAWYQQKPGQAPRLLIYGASTRATGVPARFSGSGSGTEFTLTIRSLQSEDFAVYYCQQYYNWPITFGHGTRLEIK
notes: modified (chimeric) IgG4 Fc domain as in US20140243504A1; also called PSMA-VH-3465 x CD3-VH-A, CD3-VL-A
